Measured values published in patent publication US20190085043A1, “FUSION PROTEINS FOR TREATING A METABOLIC SYNDROME” (SANOFI, priority 2012, published 2019).

Legend:
[1] = molecular target: human FGFR1c plus KLB (Homo sapiens, UniProt P11362+Q86Z14); assay: FGF-21 receptor autophosphorylation In-Cell Western (pFGFR ICW) in CHO cells; type: cell-based; details: CHO cells overexpressing human FGFR1c plus KLB, FGFR autophosphorylation
Method: FIG. 1B-1 to FIG. 1B-4) The FGF induced FGFR autophosphorylation was measured via a specific and highly sensitive In-Cell Western (ICW) in CHO cells stably overexpressing human FGFR1c together with human betaKlotho (KLB). In-Cell Western assay is an immunocytochemical assay usually performed in microplate format. Target-specific primary antibodies and infrared-labelled secondary antibodies are used to detect target proteins in fixed cells, and fluorescent signal from each well is quantified (e.g. the In-Cell Western assay from LI-COR Biosciences, USA).
The cellular efficacy of FGF-21 or FGF-21 fusion proteins was measured using a specific and highly sensitive In-Cell Western (ICW) assay. The ICW assay is an immunocytochemical assay usually performed in microplate format.
(§1) CHO Flp-In cells (Invitrogen, Darmstadt, Germany) stable expressing the human FGFR1c together with human beta-Klotho (KLB) were used for FGF-21 receptor autophosphorylation assay using In-Cell Western. In order to determine the receptor autophosphorylation level, 2×10^4 cells/well were seeded into 96-well plates and grown for 48 h. […] Subsequently cells were washed again with PBS+0.1% Tween20 and infrared dye signals were quantified with an Odyssey imager (LICOR, Bad Homburg, Germany). Results were normalized by quantification of DNA with TO-PRO3 dye (Invitrogen, Karlsruhe, Germany). […]

[2] = system: MAP kinase ERK1/2; assay: ERK1/2 phosphorylation In-Cell Western (pERK ICW) in CHO cells overexpressing human FGFR1c plus KLB; type: cell-based; details: ERK1/2 phosphorylation Thr202/Tyr204
Method: FIG. 1C-1 to FIG. 1C-3) Dose dependent in vitro activation of the downstream effector ERK. Activation of the downstream effector of FGF signaling, the MAP kinase ERK1/2, was determined via In-Cell Western assay in CHO cells stably overexpressing human FGFR1c and KLB using an antibody directed against the ERK1/2 phosphorylated amino acid residues threonine 202 and tyrosine 204.
as §1, with “h. Cells were serum starved with serum-free medium Ham's F-12 Nutrient Mix with GlutaMAX (Gibco, Darmstadt, Germany) for 3-4 h.” for “h.”
To assess the activation of a downstream effector of FGFR signalling by FGF-21-GLP-1RA fusion proteins the phosphorylation of MAP kinases ERK1/2 were analysed. […]

Sequence of human FGFR1c plus KLB (P11362 22-822): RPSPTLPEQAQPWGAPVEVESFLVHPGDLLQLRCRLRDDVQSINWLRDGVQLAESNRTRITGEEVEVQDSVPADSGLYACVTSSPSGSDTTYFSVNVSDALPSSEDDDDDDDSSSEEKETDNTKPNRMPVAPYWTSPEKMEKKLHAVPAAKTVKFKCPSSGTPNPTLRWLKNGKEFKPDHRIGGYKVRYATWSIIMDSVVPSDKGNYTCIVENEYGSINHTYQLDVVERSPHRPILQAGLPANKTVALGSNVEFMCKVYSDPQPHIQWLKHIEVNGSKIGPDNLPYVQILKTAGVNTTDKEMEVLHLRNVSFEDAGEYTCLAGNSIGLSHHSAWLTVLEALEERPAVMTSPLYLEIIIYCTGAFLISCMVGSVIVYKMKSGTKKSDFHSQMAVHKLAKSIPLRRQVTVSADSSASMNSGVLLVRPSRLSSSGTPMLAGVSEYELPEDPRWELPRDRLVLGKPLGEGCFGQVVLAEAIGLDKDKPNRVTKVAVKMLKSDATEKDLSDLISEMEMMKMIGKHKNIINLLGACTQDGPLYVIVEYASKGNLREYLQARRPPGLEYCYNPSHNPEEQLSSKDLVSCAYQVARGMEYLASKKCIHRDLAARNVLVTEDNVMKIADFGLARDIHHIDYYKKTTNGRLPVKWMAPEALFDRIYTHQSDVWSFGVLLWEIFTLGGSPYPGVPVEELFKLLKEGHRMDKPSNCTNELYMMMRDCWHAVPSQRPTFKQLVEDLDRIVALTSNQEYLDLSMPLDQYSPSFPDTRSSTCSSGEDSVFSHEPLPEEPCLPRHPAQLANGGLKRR
Sequence of human FGFR1c plus KLB (Q86Z14 whole entry): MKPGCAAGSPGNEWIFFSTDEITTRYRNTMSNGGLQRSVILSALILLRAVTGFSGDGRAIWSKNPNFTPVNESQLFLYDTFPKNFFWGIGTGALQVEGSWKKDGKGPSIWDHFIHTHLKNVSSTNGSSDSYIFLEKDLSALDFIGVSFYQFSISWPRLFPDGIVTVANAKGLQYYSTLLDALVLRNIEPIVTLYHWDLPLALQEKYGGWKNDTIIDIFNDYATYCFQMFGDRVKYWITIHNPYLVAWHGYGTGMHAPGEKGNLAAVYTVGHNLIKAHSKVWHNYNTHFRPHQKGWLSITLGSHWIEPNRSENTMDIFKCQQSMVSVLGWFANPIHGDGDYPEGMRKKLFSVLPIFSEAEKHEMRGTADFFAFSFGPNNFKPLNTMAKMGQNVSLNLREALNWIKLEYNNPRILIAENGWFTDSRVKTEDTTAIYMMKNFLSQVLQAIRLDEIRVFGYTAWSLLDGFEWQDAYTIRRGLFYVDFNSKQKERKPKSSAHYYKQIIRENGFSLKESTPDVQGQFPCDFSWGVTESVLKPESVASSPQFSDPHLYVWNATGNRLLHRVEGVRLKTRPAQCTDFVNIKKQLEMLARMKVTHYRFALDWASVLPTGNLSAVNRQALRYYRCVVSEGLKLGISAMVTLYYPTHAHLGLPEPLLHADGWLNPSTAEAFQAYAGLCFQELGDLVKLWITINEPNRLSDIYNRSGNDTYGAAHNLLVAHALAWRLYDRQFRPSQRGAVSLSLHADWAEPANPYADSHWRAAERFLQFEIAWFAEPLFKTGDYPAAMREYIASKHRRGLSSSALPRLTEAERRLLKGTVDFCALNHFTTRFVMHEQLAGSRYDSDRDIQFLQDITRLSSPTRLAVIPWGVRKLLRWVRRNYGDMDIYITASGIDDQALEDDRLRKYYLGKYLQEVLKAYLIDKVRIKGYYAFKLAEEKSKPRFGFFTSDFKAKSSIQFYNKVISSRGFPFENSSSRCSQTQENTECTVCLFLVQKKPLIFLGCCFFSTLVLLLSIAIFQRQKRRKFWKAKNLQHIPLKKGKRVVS

B1: FGF21 wild type: Native Human FGF-21 without signal sequence (protein)
chain: HPIPDSSPLLQPGGQVRQRYLYTDDAQQTEAHLEIREDGTVGGAADQSPESLLQLKALKPGVIQILGVKTSRFLCQRPDGALYGSLHFDPEACSFRELLLEDGYNVYQSEAHGLPLHLPGNKSPHRDPAPRGPARFLPLPGLPPAPPEPPGILAPQPPDVGSSDPLSMVGPSQGRSPSYAS
modifications: FGF-21 mutein H29-S209
- EC50 [1]: 4.3 nM
- EC50 [2]: 0.135 nM
